Positions count from the first letter of the chain named.
B1: SEQ ID NO 925 (designed binder)
chain: CLPDQFRCGNGQCMPLDWVCDGVNDCPDDSDEEGCPPRTCEPGQFQCGSGYCISQRWVCDGENDCEDGSDEATCAGSVPQCPSDEFRCRTGRCIPQAWRCDGVNDCVDNSDEECCKEHT
B2: SEQ ID NO 629 (designed binder)
chain: CLSSQFQCSNGNCIPAAWLCDSDNDCGDDSDETSCPAPTCPSSQFQCSSGWCIPEDWRCDGVPDCGDGSDEASDHCGDSHILPFSTPGPST
B3: SEQ ID NO 681 (designed binder)
chain: CGSDEFLCNNGKCIPPTWGCDGVNDCQDNSDEAPALCPPPTCRSNQFQCGSGYCIPQRWVCDGVDDCEDSSDEKGCTPHT
B4: SEQ ID NO 645 (designed binder)
chain: CGANEFQCGSGYCLPVGWVCDGENDCEDNSDEKGCPPHTCLPNQFQCRNGRCIPLPWLCDGDNDCEDDSDATNCTPRT
B5: SEQ ID NO 670 (designed binder)
chain: CPSNQFQCRNNGTCIPLPWLCDGVDDCGDDSDETSCTEPTCVPSQFQCGSGYCISQRWVCDGENDCEDSSDEANCAGSVPT
B6: SEQ ID NO 700 (designed binder)
chain: CRSNQFQCGSGYCIPVKWLCDGENDCEDSSDEESCPARTCPPSEFRCKGSGKCVPQHWLCDGVNDCEDDSDEKSCPPPT
B7: SEQ ID NO 730 (designed binder)
chain: CAPSQFRCESGQCLPANWRCDGENDCQDGSDESPAICEGTAPTCLPSQFQCGSGYCISQRWVCDGENDCEDSSDEANCAGSVPT
B8: SEQ ID NO 720 (designed binder)
chain: CLASQFRCGNGSCLSQTLLCDGVNDCADNSDEVSCPPPTCLPSQFQCGSGYCISQRWVCDGENDCEDSSDEANCAGSVPT
B9: SEQ ID NO 751 (designed binder)
chain: CLPSQFQCGSGYCISQRWVCDGENDCEDSSDEANCAGSVPTCLPSEFQCGNGRCLPLRLLCDGDDDCGDNSDEPLATCETSAPT
B10: SEQ ID NO 665 (designed binder)
chain: CRASQFQCGSGYCIPRPWLCDGVNDCEDGSDEADCQTRTCVPSQFQCGSGYCISQRWVCDGENDCEDSSDEANCAGSVPT
B11: SEQ ID NO 603 (designed binder)
chain: CPSDEFTCDSGRCVSLNWLCDGVNDCGDNSDEAGCPTRT
B12: SEQ ID NO 680 (designed binder)
chain: CPADEFPCKNGKCLPLPWVCDGDNDCADNSDETDCTATAPTCRSNQFQCGSGYCISQRWVCDGENDCEDSSDEANCAGSVPT
B13: SEQ ID NO 575 (designed binder)
chain: CPPDEFQCNSGSCLSQPLLCDGEDDCGDGSDEESCIAAEHT
B14: SEQ ID NO 671 (designed binder)
chain: CQSSEFTCSSGRCLSAGWLCDGVNDCRDDSDEESCTAPVPTCVPSQFQCGSGYCISQRWVCDGENDCEDSSDEANCAGSVPT
B15: SEQ ID NO 511 (designed binder)
chain: CQANEFTCSSGNCLSPALLCDGVDDCGDNSDETNCASPAPT
B16: SEQ ID NO 599 (designed binder)
chain: CLPSEFQCRDSKICLSADWLCDGVNDCVDGSDEAGCPPRT
B17: SEQ ID NO 768 (designed binder)
chain: CASNEFPCSNGNCIPGPLRCDGVNDCEDNSDESPLWPLHTCLPSQFQCGSGYCISQRWVCDGENDCEDSSDEANCAGSVPT
B18: SEQ ID NO 787 (designed binder)
chain: CLPNEFTCDSGNCVPQALGCDGDNDCEDNSDESPALCAAPAHTCQANEFTCSSGNCLSPALLCDGVDDCGDNSDETYCASPAPTCLPSQFQCGSGYCISQRWVCDGENDCEDSSDEANCAGSVPT
B19: SEQ ID NO 764 (designed binder)
chain: CEAGEFRCRNGSCIPEAWGCDGVNDYLDNSDETNCPAHTCLSSEFQCGSGYCISQRWVCDGENDCEDSSDEANCAGSVPT
B20: SEQ ID NO 715 (designed binder)
chain: CLADQFKCHNTNICIPGRLGCDGDPDCEDDSDEKGCPPHTCLPSQFQCGSGYCISQRWVCDGENDCEDSSDEANCAGSVPT
B21: SEQ ID NO 712 (designed binder)
chain: CRSSQFRCSSGQCVSLGWVCDGVNDCPDSSDETGCPKRTCLPSQFQCGSGYCISQRWVCDGENDCEDSSDEANCAGSVPT
B22: SEQ ID NO 538 (designed binder)
chain: CLPSQFQCGSGYCISQRWVCDGEHDCEDSSDEANCAGSVPT
B23: SEQ ID NO 544 (designed binder)
chain: B22 chain with Y12W, H24N
B24: SEQ ID NO 672 (designed binder)
chain: CQPGQFQCHDYGRCVSQNWLCDGDPDCLDSSDEANCQPPTCVPSQFQCGSGYCISQRWVCDGENDCEDSSDEANCAGSVPT
B25: SEQ ID NO 689 (designed binder)
chain: CRASQFQCGSGYCIPRPWLCDGVNDCEDSSDEANCAGSVPTCQPSQFRCRSGHCISGALGCDGEPDCGDGSDETGCRASAHT
B26: SEQ ID NO 635 (designed binder)
chain: CAPSQFTCGNGNCVPRPWLCDGDNDCEDDSDETSCPPHTCLPDQFQCGSGYCLPQAWVCDGENDCEDGSDETNCPART
B27: SEQ ID NO 726 (designed binder)
chain: CLPGQFRCHSTDTCLPESWVCDGVNDCADDSDEASCPPHTCLPSQFQCGSGYCISQRWVCDGENDCEDSSDEANCAGSVPT
B28: SEQ ID NO 758 (designed binder)
chain: CRPSQFQCQNSSRCIPLGWRCDGDNDCEDGSDEKDCTATARTCLPDQFQCGSGYCLPQAWVCDGENDCEDGSDETNCPART
B29: SEQ ID NO 749 (designed binder)
chain: CGASEFRCDSGHCISPDWRCDGDNDCVDGSDEKSCEQRTCLPSQFQCGSGYCFSQRWVCDGENDCEDGSDEANCAGSVPT
B30: SEQ ID NO 785 (designed binder)
chain: CQASEFPCDSGQCIPQPLGCDGDNDCADNSDEESCQPRTCPASQFPCSSGHCVPLNWVCDGVNDCVDGSDEAGCPPRTCLPDQFQCGSGYCISQRWVCDGENDCEDSSDEANCAGSVPT
B31: SEQ ID NO 675 (designed binder)
chain: CRSSEFRCDSGHCLPLPWVCDGDDDCEDGSDEAQDCEPRTCVPSQFQCGSGYCISQRWVCDGENDCEDSSDEANCAGSVPT
B32: SEQ ID NO 716 (designed binder)
chain: CPPGEFPCSSGHCLSQALRCDGVPDCEDDSDETGCPPPTCLPSQFQCGSGYCISQRWVCDGENDCEDSSDEANCAGSVPT
B33: SEQ ID NO 669 (designed binder)
chain: CEASQFPCRNSERCVPPHLLCDGVNDCADGSDEIGCPPHTCVPSQFQCGSGYCISQRWVCDGENDCEDSSDEANCAGSVPT
B34: SEQ ID NO 745 (designed binder)
chain: CPPGEFKCNSGNCVSPTWGCDGVDDCGDDSDEASAICEAPEHTCLPSQFQCGSGYCISQRWVCDGENDCEDSSDEANCAGSVPT
B35: SEQ ID NO 754 (designed binder)
chain: CPPSQFPCNSGNCVSAAWVCDGVDDCGDDSDESLAICPTSTCLPDQFQCGSGYCLPQRWVCDGVDDCEDSSDEKGCTPHT
B36: SEQ ID NO 735 (designed binder)
chain: CAANEFRCRSTNTCIPQQWLCDGVNDCQDDSDEKSCRTPAPTCLPSQFQCGSGYCISQRWVCDGENDCEDSSDEANCAGSVPT
B37: SEQ ID NO 784 (designed binder)
chain: CLSSQFQCDNGNCVPQQWVCDGDNDCLDDSDETSCSAPASEPPGSLCPASQFPCSSGHCVPLNWVCDGVNDCVDGSDEAGCPPRTCLPDQFQCGSGYCISQRWVCDGENDCEDSSDEANCAGSVPT
B38: SEQ ID NO 714 (designed binder)
chain: CPPSQFTCSNGNCLSPTLLCDGVNDCVDDSDETSCAASVHTCLPSQFQCGSGYCISQRWVCDGENDCEDSSDEANCAGSVPT
B39: SEQ ID NO 743 (designed binder)
chain: CVPSQFQCRNNGICIPQNWHCDGVPDCEDSSDEESCGTTVHTCLPSQFQCGSGYCISQRWVCDGENDCEDSSDEANCAGSVPT
B40: SEQ ID NO 725 (designed binder)
chain: CLANEFRCSSGQCIPARWLCDGVNDCVDDSDEKDCPARTCLPSQFQCGSGYCISQRWVCDGENDCEDSSDEANCAGSVPT
B41: SEQ ID NO 600 (designed binder)
chain: CEANELRCSSGRCLSVHWLCDGVDDCEDSSDEAGCPPRT
B42: SEQ ID NO 677 (designed binder)
chain: CRADQCQCNSGHCLSRNLRCDGEDDCADNSDEKSCSQDPEFHKVCLPDQFQCGSGYCLPQRWVCDGVDDCEDSSDEKGCTPHT

Target: T1, human IL-6 (human, UniProt P05231 30-212)
T1 construct: the protein used was bought recombinant human IL-6 (R&D Systems), in part biotinylated; also called rhIL-6; hIL-6
Assay: ELISA on IL-6 (also TF1 cell assay)

Binder	binding result
B1	binds

Target: T1, human IL-6
Assay: panning and screening on IL-6

Binder	binding result
B2	binds
B3	binds
B4	binds
B5	binds
B6	binds
B7	binds
B8	binds
B9	binds
B10	binds
B11	binds
B12	binds
B13	binds
B14	binds
B15	binds
B16	binds
B17	binds
B18	binds
B19	binds
B20	binds
B21	binds
B22	binds

Binder	binding result
B23	binds
B24	binds
B25	binds
B26	binds
B27	binds
B28	binds
B29	binds
B30	binds
B31	binds
B32	binds
B33	binds
B34	binds
B35	binds
B36	binds
B37	binds
B38	binds
B39	binds
B40	binds
B41	binds
B42	binds

From US20090305962A1 (Amgen, published 2009)
